Results on two molecules are retold here after patent US20240102094A1 (Amgen, published 2024).

The target in experiment [1] is T1, human TREM2 R47H variant, expressed on cells (human, UniProt Q9NZC2 19-230).
T1 construct: On BMMs from TREM2R47H transgenic mice or on 2B4 NFAT:GFP reporter cells with DAP12; also called hTREM2R47H
T1 chain: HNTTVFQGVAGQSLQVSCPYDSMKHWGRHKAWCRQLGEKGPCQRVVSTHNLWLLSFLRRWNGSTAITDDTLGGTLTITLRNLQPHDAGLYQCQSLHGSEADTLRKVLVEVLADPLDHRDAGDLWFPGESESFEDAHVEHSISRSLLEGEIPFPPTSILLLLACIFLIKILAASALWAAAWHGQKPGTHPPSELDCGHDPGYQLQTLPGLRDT
As to the kind of experiment: flow cytometry on bone marrow-derived macrophages from TREM2R47H mice, detection with anti-hIgG Fc-PE. The text has this: An anti-hTREM1 antibody and an isotype-matched hIgG2 control antibody were used as controls. […] Dead cells were excluded by DAPI staining.
In general terms: A flow cytometer gives signals particle by particle.

In experiment [2] the target is T2, mTREM2 expressed with mDAP12 on HEK293 cells (mouse, UniProt Q99NH8 19-227).
T2 construct: whole, on cells
T2 sequence (looked up): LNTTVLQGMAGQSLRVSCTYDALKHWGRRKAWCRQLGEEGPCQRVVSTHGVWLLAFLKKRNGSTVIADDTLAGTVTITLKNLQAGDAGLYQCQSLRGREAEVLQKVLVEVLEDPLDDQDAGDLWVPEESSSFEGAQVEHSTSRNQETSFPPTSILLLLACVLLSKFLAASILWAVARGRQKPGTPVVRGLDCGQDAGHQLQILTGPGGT
As to the kind of experiment: flow cytometry on HEK293 cells expressing mTREM2 and mDAP12, Geomean Fold (S/B) against antibody concentration.

Experiment [3] has as its target T3, human TREM2, common variant, expressed on cells (human, UniProt Q9NZC2 19-230).
T3 sequence: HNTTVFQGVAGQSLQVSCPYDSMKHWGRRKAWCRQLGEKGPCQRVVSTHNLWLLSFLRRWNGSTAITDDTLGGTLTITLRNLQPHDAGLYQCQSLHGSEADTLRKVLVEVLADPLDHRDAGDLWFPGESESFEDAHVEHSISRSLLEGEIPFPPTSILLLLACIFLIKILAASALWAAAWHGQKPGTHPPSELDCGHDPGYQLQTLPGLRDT
As to the kind of experiment: cell-based or functional assay.

The target of experiment [4] is T4, recombinant hTREM2:GSS:Flag:6xHis (human, UniProt Q9NZC2 19-174, minimally biotinylated (0.3-0.4 biotin/mol) when immobilised on streptavidin sensors).
T4 construct: also called hTREM2-His; purified human TREM2; not shown: Flag tag
In words: Octet BLI; biotinylated hTREM2:GSS:Flag:6xHis on streptavidin sensors, Fab dilution series 30, 10, 3.3 nM, global 1:1 fit; Fab, not IgG; biotinylated hTREM2 on streptavidin sensors.

B1: hT2AB (fully human anti-human TREM2 agonistic monoclonal antibody, effectorless hIgG1) (antibody, V domains shown)
VH: EVQLVQSGAEVKKPGESLKISCKGSGYSFTSYWIGWVRQMPGKGLEWMGIIYPGDADARYSPSFQGQVTISADKSISTAYLQWSSLKASDTAMYFCARRRQGIFGDALDFWGQGTLVTVSS
VL: EIVMTQSPATLSVSPGERATLSCRASQSVSSNLAWFQQKPGQAPRLLIYGASTRATGIPARFSGSGSGTEFTLTISSLQPEDFAVYYCLQDNNFPPTFGQGTKVDIKR
notes: also called hT2AB IgG1; anti-human TREM2 mAb hT2AB
On to B1, for which the binding result in experiment [1] was “binds”. For the same molecule, the binding result in experiment [2] is given as “no binding (tested: 5 ug/mL)”. Moreover, in experiment [3], the “EC50 of pSyk induction in HEK293 cells expressing human TREM2 and DAP12 (clone G13)” value amounted to 222 pM; the “EC50 of pSyk induction in human monocyte-derived macrophages (hMacs)” value turned out to be 166 pM.

B2: hT2AB Fab (monomeric antigen-binding fragment of hT2AB) (Fab, V domains shown)
VH: EVQLVQSGAEVKKPGESLKISCKGSGYSFTSYWIGWVRQMPGKGLEWMGIIYPGDADARYSPSFQGQVTISADKSISTAYLQWSSLKASDTAMYFCARRRQGIFGDALDFWGQGTLVTVSS
VL: EIVMTQSPATLSVSPGERATLSCRASQSVSSNLAWFQQKPGQAPRLLIYGASTRATGIPARFSGSGSGTEFTLTISSLQPEDFAVYYCLQDNNFPPTFGQGTKVDIK
notes: also called hT2AB Fab protein
In general, Kd refers to the free concentration of one partner at which half of the binding sites on the other are occupied at equilibrium, for simple one-to-one binding. With B2, the Kd in experiment [4] came to 50 nM.
